Consider three molecules from patent US20050287149A1 (Bristol-Myers Squibb, published 2005).

The labels stand for the following.
B1: human monoclonal antibody 5D5 (antibody, V domains shown)
VH: QVQLVESGGGVVQPGRSLRLSCAASGFTFSSYGMHWVRQAPGKGLEWVAVIWYDGSNKYYADSVKGRFTISRDNSKNTLYLQMNSLRAEDTAVYYCAREGNRSHYIPFAYWGQGTLVTVSS
VL: DIQMTQSPSSLSASVGDRVTITCRASQGISSWLAWYQQKPEKAPKSLIYAASSLQSGVPSRFSGSGSGTDFTLTISSLQPEDFATYYCQQYNSYPRTFGGGTKVEIK
notes: also called HuMab 5D5; 5D5-2E10
B2: human monoclonal antibody 2H4 (antibody, V domains shown)
VH: EVHLVESGGGLVQPGGSLRLSCAASGFTFSSYWMSWVRQAPGKGLEWVANINQYGSEKYYVDSVKGRFTISRDNAKNSLYLQMNSLRAEDTAVYYCARDSPYYYGSGSYYRGYWYFDLWGRGTLVTVSS
VL: B1 VL with R96P, G100Q, K103R, V104L
notes: also called HuMab 2H4
B3: human monoclonal antibody 2D5 (antibody, V domains shown)
VH: QVQLVESGGGVVQPGRSLRLSCAASGFTFSSYGMHWVRQAPGKGLEWVAVIWNDGSNKYYADSVKGRFTISRDNSKNTLYLQMNSLRAEDTAVYYCARENWGEYFDYWGQGTLVTVSS
VL: AIQLTQSPSSLSASVGDRVTITCRASQGISSALAWYQQKPGKAPKLLIYDASSLKSGVPSRFSGSGSGTDFTLTISSLQPEDFATYYCQQFNSYWTFGQGTKVEIK
notes: also called HuMab 2D5

Changes are numbered by the printed parent chain.

T1 sequence (P13423 197-764 limits assumed): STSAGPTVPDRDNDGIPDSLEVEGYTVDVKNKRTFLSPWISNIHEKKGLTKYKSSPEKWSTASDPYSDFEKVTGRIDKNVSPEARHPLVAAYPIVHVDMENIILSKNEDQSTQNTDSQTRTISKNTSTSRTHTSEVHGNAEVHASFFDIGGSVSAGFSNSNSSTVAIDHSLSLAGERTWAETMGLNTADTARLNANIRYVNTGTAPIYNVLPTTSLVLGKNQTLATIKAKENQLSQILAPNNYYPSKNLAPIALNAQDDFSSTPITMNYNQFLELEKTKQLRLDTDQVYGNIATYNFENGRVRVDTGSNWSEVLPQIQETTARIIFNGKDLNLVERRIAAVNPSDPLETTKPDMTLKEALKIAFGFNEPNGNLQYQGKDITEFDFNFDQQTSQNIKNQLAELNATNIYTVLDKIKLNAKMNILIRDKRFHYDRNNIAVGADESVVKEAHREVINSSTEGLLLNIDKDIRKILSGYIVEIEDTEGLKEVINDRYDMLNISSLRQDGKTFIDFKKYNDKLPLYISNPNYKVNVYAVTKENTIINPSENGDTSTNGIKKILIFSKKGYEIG

One test addresses T1, Bacillus anthracis protective antigen, cleaved 63 kD form (PA63) (Bacillus anthracis, UniProt P13423 197-764).
T1 construct: also called cleaved protective antigen (63 kD); active fragment of PA
The experiment in a line: ELISA, plate coated with PA63 (FIG. 11).
Regarding B1, the binding result is recorded as “binds”.

In the case of B2, the binding result was “binds”.

In the case of B3, the binding result is recorded as “binds”.

The target of a further test is T2, Bacillus anthracis protective antigen, full-length 83 kD form (PA83) (Bacillus anthracis, UniProt P13423 30-764).
T2 construct: mature; also called rPA-83; full length PA 83
T2 sequence (P13423 30-764): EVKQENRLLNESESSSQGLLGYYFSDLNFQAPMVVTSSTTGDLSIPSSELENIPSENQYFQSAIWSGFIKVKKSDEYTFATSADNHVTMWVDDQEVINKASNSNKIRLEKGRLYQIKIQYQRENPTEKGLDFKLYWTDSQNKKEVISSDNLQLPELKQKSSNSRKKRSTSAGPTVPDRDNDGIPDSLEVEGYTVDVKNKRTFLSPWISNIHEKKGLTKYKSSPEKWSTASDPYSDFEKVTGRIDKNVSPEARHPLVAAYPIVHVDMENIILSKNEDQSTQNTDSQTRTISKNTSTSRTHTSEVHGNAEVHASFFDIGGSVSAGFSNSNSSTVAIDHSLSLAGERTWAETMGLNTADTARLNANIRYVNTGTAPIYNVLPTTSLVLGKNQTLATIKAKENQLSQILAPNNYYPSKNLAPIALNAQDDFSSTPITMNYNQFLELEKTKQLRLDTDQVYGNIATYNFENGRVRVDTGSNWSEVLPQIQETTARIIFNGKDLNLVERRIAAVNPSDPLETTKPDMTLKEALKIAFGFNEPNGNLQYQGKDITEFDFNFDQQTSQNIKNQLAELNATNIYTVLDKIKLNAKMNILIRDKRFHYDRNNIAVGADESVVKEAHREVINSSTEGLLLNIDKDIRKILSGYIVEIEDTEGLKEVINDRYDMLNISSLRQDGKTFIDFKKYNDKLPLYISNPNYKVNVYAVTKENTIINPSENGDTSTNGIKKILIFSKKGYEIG
The experiment in a line: ELISA, plate coated with PA83 (FIG. 11). (In an ELISA, binding on a coated surface is turned into a signal by an enzyme label.)
In the case of B1, the binding result is listed as “binds”.

B2: the binding result is on record as “binds”.

As to B3, the binding result is “binds”.
